Tests used:
Tie 2 [1] = biological target: T1, Tie 2 (Homo sapiens, UniProt Q02763); assay: In vitro pull down assay of Tie 2 from EaHy926 cell lysate; type: binding; parameters: a cell lysate of EaHy926 endothelial cells (which express high levels of Tie 2) was prepared; endogenous in cells; host or cells: EaHy926 endothelial cells
Protocol: In this example, the ability of Vasculotide to bind the Tie 2 receptor, despite the engineered modifications, was tested using an in vitro pull down assay. In the pull down assay, a cell lysate of EaHy926 endothelial cells (which express high levels of Tie 2) was prepared in Phospho Lipase Cγ lysis buffer (50 mM Hepes buffer pH 7.5, 150 mM NaCl, 10% glycerol, 1% Triton X-100, 1.5 mM MgCl2, 1.0 mM EGTA, 10 mM NaPPi, […], 2 mM Na3VO4, 1× aprotinin, 1× leupeptin and 1×PMSF). The whole cell lysate was mixed with either unclustered biotinylated Vasculotide or biotinylated irrelevant peptide. The biotinylated peptides then were isolated with avidin agarose and subsequently tested for their ability to precipitate Tie 2 via standard immunoblot analysis using anti-Tie 2 antibody.

Tie 2 [2] = biological target: T1, Tie 2; assay: Tie 2 activation (pY992 Tie 2 immunoblot) in HUVEC; type: cell-based; parameters: downstream signalling pathways in human umbilical vein endothelial cells (HUVEC) (Cambrex, N.J.); host or cells: HUVEC, passage 3-9
Protocol: Having established that Vasculotide was able to bind Tie 2 (see Example 2), the ability of Vasculotide, when clustered with avidin in a 4:1 ratio (Vasculotide:avidin), to activate the Tie 2 receptor was tested by examining several well established downstream signalling pathways in human umbilical vein endothelial cells (HUVEC) (Cambrex, N.J.). Such signalling pathways are described in, for example, Kim, I. et al. (2000) Circ. Res. 9:952-959; Fujikawa, K. et al. (1999) Exp. Cell. Res. 2:663-672; Babaei, S. et al. (2003) Am. J. Pathol. 6:1927-1936.
HUVEC were grown on 6-well or 10 cm plates (Nunc) coated with gelatin (Sigma). HUVEC were cultured in F12 growth medium containing 10% fetal bovine serum (FBS), 0.1 mg/ml heparin sulphate, 1× penicillin, 1× streptomycin, 1× glutamine, VEGF 10 ng/ml, EGF 10 ng/ml, bFGF 5 ng/ml. All HUVEC were used between passage 3-9.
HUVEC were stimulated with one of either Ang 1 (R&D Systems), Vasculotide, avidin or clustered Vasculotide (preclustered with a 4:1 molar ratio of peptide:avidin in PBS for 2 hours at 4° C.) at various doses. Stimulations with Vasculotide were performed in full serum containing growth media for 15 minutes unless otherwise indicated. Cell lysate preparations and immunoblot analysis were performed by standard methods. Antibodies used for immunoblotting (in this and/or subsequent Examples) were monoclonal anti Tie 2 (Pharminogen), polyclonal anti pY992 Tie 2, (Cell Signaling Technology), polyclonal anti MAPK (Cell Signaling Technology), monoclonal anti phospho MAPK (Cell Signaling Technology), polyclonal anti AKT (Cell Signaling Technology), polyclonal anti pS473 AKT (Cell Signaling Technology), monoclonal anti pS1177 eNOS (BD Biosciences), polyclonal anti pY397 FAK (Biosource), polyclonal anti FAK (Santa Cruz), polyclonal anti smooth muscle actin-Cy3 direct conjugate (Dako), polyclonal anti PECAM (Pharminogen) and polyclonal anti smooth muscle actin (Sigma).
To examine Tie 2 activation kinetics, HUVEC were stimulated with native Ang 1 or clustered Vasculotide for various times. Stimulation was performed in 10% FBS. […] Overall, activation of the receptor by either Ang 1 or clustered Vasculotide followed a very similar time course with phosphorylation returning to almost basal levels sometime after 2 hours.

[3] = test system: Cos 1 fibroblast cells and C166 EC's (phenotypically null for Tie 2); assay: MAPK and AKT phosphorylation in Ad-EGFP infected cells null for Tie 2; type: cell-based; settings: EGFP infected Cos 1 and C166 cells
Protocol: To more formally address the specificity of clustered Vasculotide for the Tie 2 receptor, reconstitution experiments were performed in Cos 1 fibroblast cells and C166 EC's, both of which are phenotypically null for Tie 2. Cos 1 and C166 cells (ATCC) were maintained on 10-cm-diameter plates (Nunc) in Dulbecco's modified Eagle's medium (DMEM) supplemented with 10% (FBS), 1× penicillin, 1× streptomycin, and 200 mM L-glutamine (all Gibco BRL) in a 5% CO2 incubator at 37° C. Cos1 or C166 cells were infected (MOI 30) overnight with adenoviruses encoding one of either enhanced green fluorescent protein (EGFP) or Tie 2. Infection efficiency was confirmed by epifluorescence (EGFP), or by immunoblot (Tie 2).
Cells infected with recombinant adenovirus encoding EGFP or Tie 2 were either left unstimulated or stimulated with Vasculotide, clustered Vasculotide or avidin for 16 hours, after which MTS reagent was applied to all samples for 4 hours. Absorbance at 492 was measured using a multiwell plate reader (Power Wave X340, Biotek Instruments Inc). To broadly examine the potential that clustered Vasculotide was activating Tie 2-independent downstream signalling pathways, the activation of MAPK and AKT in the EGFP infected cells was examined. […] This fact precluded us from stimulating these cells any further with Vasculotide or clustered Vasculotide.

HUVEC = assay: Serum withdrawal-induced cell death, Cell Death ELISA; type: cell-based, human; settings: F12 plus 0.1% FBS, 16 hours; clustered Vasculotide at 500 pM (p=0.002) vs non-treated cells
Protocol: Based on the fact that clustered Vasculotide strongly activates the anti apoptotic protein AKT (see Example 3), the ability of Vasculotide to protect ECs from serum withdrawal-induced death was examined. To do so, HUVEC were maintained in F12 media plus 0.1% FBS for 16 hours in the presence of various concentrations of unclustered or clustered Vasculotide, followed by analysis of cell apoptosis via cell death ELISA. Analysis of apoptosis was performed using Cell Death ELISA Plus (Roche) according to manufacturers' specifications. The results are shown in FIG. 2A, in which values were normalized to basal levels of cell death for HUVECs maintained in full 10% FBS, growth factor supplemented F12 media. The results shown represent the mean of three replicates plus or minus 1 SD. Student's T-test was used for statistical analysis with P value indicated.

T1 sequence (Q02763 23-1124): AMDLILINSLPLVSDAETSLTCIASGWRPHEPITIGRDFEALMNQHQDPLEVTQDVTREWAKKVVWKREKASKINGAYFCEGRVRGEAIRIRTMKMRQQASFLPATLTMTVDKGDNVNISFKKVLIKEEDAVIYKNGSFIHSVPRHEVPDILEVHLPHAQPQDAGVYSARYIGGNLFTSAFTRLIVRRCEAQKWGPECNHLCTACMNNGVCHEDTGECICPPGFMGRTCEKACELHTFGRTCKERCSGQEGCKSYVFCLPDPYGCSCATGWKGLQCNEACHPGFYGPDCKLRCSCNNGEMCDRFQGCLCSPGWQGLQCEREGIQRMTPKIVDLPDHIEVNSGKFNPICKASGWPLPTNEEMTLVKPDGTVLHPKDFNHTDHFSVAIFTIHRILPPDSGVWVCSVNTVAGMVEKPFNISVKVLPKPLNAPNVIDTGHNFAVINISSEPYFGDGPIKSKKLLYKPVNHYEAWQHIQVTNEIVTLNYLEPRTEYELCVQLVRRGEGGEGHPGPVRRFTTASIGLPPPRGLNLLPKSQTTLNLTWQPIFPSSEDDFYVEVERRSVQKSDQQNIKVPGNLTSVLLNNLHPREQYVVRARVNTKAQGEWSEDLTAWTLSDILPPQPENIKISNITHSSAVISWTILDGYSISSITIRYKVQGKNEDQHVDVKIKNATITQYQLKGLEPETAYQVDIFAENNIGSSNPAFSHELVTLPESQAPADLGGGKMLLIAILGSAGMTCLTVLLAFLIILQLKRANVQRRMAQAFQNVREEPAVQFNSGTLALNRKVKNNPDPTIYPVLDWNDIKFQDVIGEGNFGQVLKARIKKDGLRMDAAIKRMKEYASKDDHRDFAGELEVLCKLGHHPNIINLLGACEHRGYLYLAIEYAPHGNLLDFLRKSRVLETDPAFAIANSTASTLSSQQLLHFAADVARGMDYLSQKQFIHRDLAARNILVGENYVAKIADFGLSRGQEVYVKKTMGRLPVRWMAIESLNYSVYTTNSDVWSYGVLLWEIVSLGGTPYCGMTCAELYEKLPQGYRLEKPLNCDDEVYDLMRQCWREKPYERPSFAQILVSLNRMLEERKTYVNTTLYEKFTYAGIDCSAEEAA

Row | Substance | Precipitation of Tie 2 (avidin agarose pull down, anti-Tie 2 immunoblot) (Tie 2 [1]; EaHy926 whole cell lysate, unclustered biotinylated peptide) | Tie 2 phosphorylation without preclustering (Tie 2 [2]; avidin alone and unclustered Vasculotide) | Phosphorylation of MAPK or AKT above non-stimulated samples [3] | Apoptosis / survival after serum withdrawal (HUVEC) | Competition for available Tie 2 in the pull down (Tie 2 [1]; ten fold excess, preclustered with soluble avidin) | Ability to activate Tie 2 phosphorylation, time course, versus Ang 1 (400 ng/ml) (Tie 2 [2]; 2 nM, 10% FBS) | Tie 2 receptor activation at high concentration (Tie 2 [2]; 50 nM) | Optimal concentration for Tie 2 activation (pY992 Tie 2) (Tie 2 [2]; 15 minutes)
1 | Vasculotide: biotinylated T7 peptide-PEG: Cys-His-His-His-Arg-His-Ser-Phe (SEQ ID NO: 2) conjugated to EZ-link-PEO-maleimide-biotin | able to precipitate Tie 2 | only when preclustered with avidin was Vasculotide able to stimulate Tie 2 phosphorylation | Neither Vasculotide nor clustered Vasculotide significantly induced phosphorylation of MAPK or AKT | no effect on survival | – | – | – | –
2 | clustered Vasculotide: Vasculotide clustered with avidin in a 4:1 ratio, an obligate tetrameric compound | – | – | Neither Vasculotide nor clustered Vasculotide significantly induced phosphorylation of MAPK or AKT | statistically significant decrease in apoptosis | able to abolish this interaction | compared favorably to Ang 1 | not capable of activating Tie 2 receptor activity | 5-10 nM

Reference: patent publication US8957022B2, “Multimeric tie 2 agonists and uses thereof in stimulating angiogenesis” (Sunnybrook Health Sciences Centre, priority 2006, dated 2015)
